As a reminder, the Kd is the equilibrium constant for the complex coming apart.

Experimental findings from publication PMC12375108 are described below.

The target of this experiment is GST-tagged T. marianensis hinT H100N (Thermaerobacter marianensis). Put plainly: BLI; GST-hinT (90 nM) immobilised on anti-GST biosensors; sucA-AMP 500 to 7.81 nM, unmodified sucA at 500 nM; 10 mM Tris pH 8, 150 mM NaCl, 0.1% Triton X-100; KD from steady-state responses, one site. Background: BLI is a label-free optical method that tracks binding on a fibre tip over time.

B1: AMPylated sucA (enzyme)
chain: MQNSALKAWLDSSYLSGANQSWIEQLYEDFLTDPDSVDANWRSTFQQLPGTGVKPDQFHSQTREYFRRLAKDASRYSSTISDPDTNVKQVKVLQLINAYRFRGHQHANLDPLGLWQQDKVADLDPSFHDLTEADFQETFNVGSFASGKETMKLGELLEALKQTYCGPIGAEYMHITSTEEKRWIQQRIESGRATFNSEEKKRFLSELTAAEGLERYLGAKFPGAKRFSLEGGDALIPMLKEMIRHAGNSGTREVVLGMAHRGRLNVLVNVLGKKPQDLFDEFAGKHKEHLGTGDVKYHMGFSSDFQTDGGLVHLALAFNPSHLEIVSPVVIGSVRARLDRLDEPSSNKVLPITIHGDAAVTGQGVVQETLNMSKARGYEVGGTVRIVINNQVGFTTSNPLDARSTPYCTDIGKMVQAPIFHVNADDPEAVAFVTRLALDFRNTFKRDVFIDLVCYRRHGHNEADEPSATQPLMYQKIKKHPTPRKIYADKLEQEKVATLEDATEMVNLYRDALDAGDCVVAEWRPMNMHSFTWSPYLNHEWDEEYPNKVEMKRLQELAKRISTVPEAVEMQSRVAKIYGDRQAMAAGEKLFDWGGAENLAYATLVDEGIPVRLSGEDSGRGTFFHRHAVIHNQSNGSTYTPLQHIHNGQGAFRVWDSVLSEEAVLAFEYGYATAEPRTLTIWEAQFGDFANGAQVVIDQFISSGEQKWGRMCGLVMLLPHGYEGQGPEHSSARLERYLQLCAEQNMQVCVPSTPAQVYHMLRRQALRGMRRPLVVMSPKSLLRHPLAVSSLEELANGTFLPAIGEIDELDPKGVKRVVMCSGKVYYDLLEQRRKNNQHDVAIVRIEQLYPFPHKAMQEVLQQFAHVKDFVWCQEEPLNQGAWYCSQHHFREVIPFGASLRYAGRPASASPAVGYMSVHQKQQQDLVNDALNVE
modifications: multiple AMPylation sites, residues not given
Take B1: the dissociation constant (Kd) was 9 nM.
